Measured values from paper PMC4939079 (Nature structural & molecular biology, 2016).

Target: the molecule itself
Experiment: affinity purification with mass spectrometry

B1: Bap1-GFP (natural protein)
chain: MNKGWLELESDPGLFTLLVEDFGVKGVQVEEIYDLQSKCQGPVYGFIFLFKWIEERRSRRKVSTLVDDTSVIDDDIVNNMFFAHQLIPNSCATHALLSVLLNCSNVDLGPTLSRMKDFTKGFSPESKGYAIGNAPELAKAHNSHARPEPRHLPEKQNGLSAVRTMEAFHFVSYVPITGRLFELDGLKVYPIDHGPWGEDEEWTDKARRVIMERIGLATAGEPYHDIRFNLMAVVPDRRIKYETRLHVLKVNRQTVLEALQQLIRVTQPELIQTHKSQESQLPEESKPASSKSPLGLEAGRTPVASECTQTDGAEEVAGSCPQTTTHSPPSKCKLVVKPPGSSLNGVPPNPAPIVQRLPAFLDNHNYAKSPMQEEEDLAAGVGRSRVPVRAPQQYSEDEDDYEDEDEDVQNTNPAIRYKRKGTGKPGSLSNSSDGQLSVLQPNTINVLTEKLQESQKDLSVPLSIKTSSGAGSPAVAVPTHSQPSPTPSNESTDTASEIGSAFNSPLRSPIRSANPTRPSSPVTSHISKVLFGEDDSLLRVDCIRYNRAVRDLGPVISTGLLHLAEDGVLSPLALTEGGKGSSPSTRSSQGSQGSSGLEEKEVVEVTESRDKPGLNRSSEPLSGEKYSPKELLALLKCVEAEIANYEACLKEEVEKRKKFKIDDQRRTHNYDEFICTFISMLAQEGMLANLVEQNISVRRRQGVSIGRLHKQRKPDRRKRSRPYKAKRQ
- stoichiometry N: ~2
